Each block holds one molecule with its values, some of them ahead of it.
How the values were obtained:
[1] = target: IL-2Rβ/IL-2Rγ (Homo sapiens) (UniProt P14784); conditions: cited from earlier work
[2] = target: mIL-2:S4B6 immunocomplex (mouse | not stated) (UniProt P04351); test: SPR
[3] = target: mouse interleukin-2 displayed on the surface of yeast (mouse, UniProt P04351); test: flow cytometry on cells
[4] = target: mouse interleukin-2 (mouse) (UniProt P04351)

Molecule: IL-2 (from UniProt P60568)
- Kd [1]: 1 nM

- fold enhancement of binding over free mIL-2 [2]: 6 fold
Molecule: mouse interleukin-2 receptor-β (from UniProt P16297 27-240)

- binding result [3]: binds
- fold higher apparent affinity than the monovalent form [4]: > 25 fold
B1: S4B6 antibody (antibody, V domains shown)
VH: EVQLQESGAELVRPGTSVKLSCKVSGDTITAYYLHFVRQRPGQGLEWIGRIDPEDDSTKYAENFKNKATFTADASSNTAYLRLSSLTSEDTATYFCTTVTFYYSRELRWFAYWGQGTLVTVSS
VL: DIQVTQSPASLSASLEEIVTITCQASQDIGNYLSWYQQKLGKSPQLLIHSATSLADGVPSRFSGSRSGTQYSLKINRLQVEDTGIYYCLQHYSTPYTFGAGTKLELK

- binding result [3]: binds
B2: JES6-1 antibody (antibody, V domains shown)
VH: EIQLQQSGPELRRPGSSVKLSCKASGYNITDYLIHWVRHRPEHGLEWIGWIDPEDGETRYAQKFQSKATLTADTSSNAAYMQLSSLTPEDTATYFCARSLDSTYIYPFAYWGQGTLVTVSS
VL: DIVMTQSPFSLAVSEGEMVTINCKSSQSLLSSGNQKNYLAWYQQKPGQSPKLLIYYASTGQSGVPDRFIGSGSGTDFTLTISDVQAEDLADYYCLQHYISPPTFGAGTKLELK

From article PMC4439582 (Immunity, 2015)
